Columns and labels:
[1] = molecular target: Nucleolysin TIA-1 (endogenous mouse TIA1) (mouse) (UniProt P52912); assay: TIA1 IP-MS, tau KO 2 cortex
[2] = molecular target: Nucleolysin TIA-1 (endogenous mouse TIA1) (mouse) (UniProt P52912); assay: TIA1 IP-MS, WT2 cortex
[3] = molecular target: Nucleolysin TIA-1 (endogenous mouse TIA1) (mouse) (UniProt P52912); assay: TIA1 IP-MS, WT1 cortex
[4] = molecular target: Nucleolysin TIA-1 (endogenous mouse TIA1) (mouse) (UniProt P52912); assay: TIA1 IP-MS, tau KO 1 cortex
[5] = molecular target: Nucleolysin TIA-1 (endogenous mouse TIA1) (mouse) (UniProt P52912); assay: TIA1 IP-MS, WT3 cortex
[6] = molecular target: Nucleolysin TIA-1 (endogenous mouse TIA1) (mouse) (UniProt P52912); assay: TIA1 IP-MS, tau KO 3 cortex

UniProt P52912, sequence (P52912 whole entry): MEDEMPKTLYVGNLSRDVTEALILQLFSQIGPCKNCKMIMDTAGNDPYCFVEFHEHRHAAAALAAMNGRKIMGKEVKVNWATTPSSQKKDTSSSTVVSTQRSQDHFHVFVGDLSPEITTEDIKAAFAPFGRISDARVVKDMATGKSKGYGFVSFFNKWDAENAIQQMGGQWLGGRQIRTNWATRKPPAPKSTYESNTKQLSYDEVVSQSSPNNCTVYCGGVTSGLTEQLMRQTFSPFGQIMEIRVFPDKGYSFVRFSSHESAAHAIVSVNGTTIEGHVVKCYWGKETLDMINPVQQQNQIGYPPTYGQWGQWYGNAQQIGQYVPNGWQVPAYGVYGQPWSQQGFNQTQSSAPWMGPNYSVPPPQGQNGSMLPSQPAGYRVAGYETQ

total ion current (normalized to TIA1 = 1000) [1] | total ion current (normalized to TIA1 = 1000) [2] | total ion current (normalized to TIA1 = 1000) [3] | total ion current (normalized to TIA1 = 1000) [4] | total ion current (normalized to TIA1 = 1000) [5] | total ion current (normalized to TIA1 = 1000) [6] | Substance
97.8 | 0 | 0 | 0 | 218 | 0 | LanC-like protein 1 (from UniProt O89112 2-399)
0 | 408 | 0 | 10.6 | 0 | 0 | Leucine-rich repeat-containing protein 59 (from UniProt Q922Q8 1-307)
81.6 | 189 | 0 | 0 | 31.7 | 0 | Malate dehydrogenase, cytoplasmic (from UniProt P14152 2-334)
477 | 819 | 0 | 0 | 131 | 0 | Malate dehydrogenase, mitochondrial (from UniProt P08249 25-338)
36.1 | 116 | 0 | 0 | 0 | 0 | Microtubule-associated protein 6 (from UniProt Q7TSJ2 1-906)
12.2 | 136 | 0 | 0 | 85 | 0 | Mitochondrial glutamate carrier 1 (from UniProt Q9D6M3 1-323)
72.4 | 112 | 0 | 0 | 0 | 141 | Mitogen-activated protein kinase 1 (from UniProt P63085 2-358)
76 | 133 | 0 | 0 | 607 | 0 | Myelin-oligodendrocyte glycoprotein (from UniProt Q61885 29-246)
0 | 179 | 0 | 0 | 0 | 0 | NADH dehydrogenase [ubiquinone] flavoprotein 1, mitochondrial (from UniProt Q91YT0 21-464)
27 | 137 | 0 | 0 | 0 | 0 | NADH dehydrogenase [ubiquinone] iron-sulfur protein 2, mitochondrial (from UniProt Q91WD5 34-463)
36.9 | 366 | 0 | 0 | 60.8 | 0 | NADH dehydrogenase [ubiquinone] iron-sulfur protein 3, mitochondrial (from UniProt Q9DCT2 36-263)
0 | 98.9 | 0 | 10.5 | 0 | 474 | Nascent polypeptide-associated complex subunit alpha, muscle-specific form (from UniProt P70670 1-2187)
0 | 0 | 0 | 0 | 0 | 1570 | Nicotinamide phosphoribosyltransferase (from UniProt Q99KQ4 1-491)
133 | 555 | 0 | 0 | 0 | 0 | PH and SEC7 domain-containing protein 3 (from UniProt Q2PFD7 1-1037)
0 | 36.6 | 0 | 0 | 0 | 0 | Phosphatidylinositol 5-phosphate 4-kinase type-2 gamma (from UniProt Q91XU3 2-421)
54.7 | 17.1 | 0 | 0 | 0 | 0 | Phytanoyl-CoA hydroxylase-interacting protein (from UniProt Q8K0S0 1-330)
58.5 | 19.2 | 0 | 0 | 30.2 | 0 | Poly(rC)-binding protein 1 (from UniProt P60335 1-356)
86.4 | 50.7 | 0 | 0 | 0 | 0 | Polyadenylate-binding protein 1 (from UniProt P29341 1-636)
34.1 | 135 | 0 | 0 | 0 | 0 | Probable ATP-dependent RNA helicase DDX17 (from UniProt Q501J6 1-650)
137 | 172 | 0 | 0 | 37.7 | 0 | Prohibitin (from UniProt P67778 2-272)
292 | 440 | 0 | 0 | 171 | 0 | Prohibitin-2 (from UniProt O35129 2-299)
0 | 0 | 10.5 | 0 | 0 | 0 | Proteasome subunit alpha type-4 (from UniProt Q9R1P0 1-261)
0 | 0 | 0 | 0 | 259 | 0 | Protein Golgb1
27 | 219 | 0 | 0 | 0 | 0 | Protein NipSnap homolog 1 (from UniProt O55125 36-284)
0 | 81 | 0 | 0 | 0 | 0 | Protein NipSnap homolog 2 (from UniProt O55126 28-281)
36 | 69.2 | 0 | 0 | 13.8 | 0 | Protein disulfide-isomerase A3 (from UniProt P27773 25-505)
31.2 | 70.2 | 0 | 0 | 18.4 | 0 | Protein kinase C and casein kinase substrate in neurons protein 1 (from UniProt Q61644 1-441)
0 | 78.7 | 0 | 0 | 0 | 0 | Protein kinase C epsilon type (from UniProt P16054 1-737)

Source: US20190142860A1, “NUCLEIC ACID BASED TIA-1 INHIBITORS” (Aquinnah Pharmaceuticals, Inc., priority 2015, published 2019)
